Experimental data: publication PMC5002983, “Hepatocyte Growth Factor Modulates MET Receptor Tyrosine Kinase and β-Catenin Functional Interactions to Enhance Synapse Formation” (eNeuro, 2016)

B1: β-catenin (natural protein, UniProt Q02248 1-781, looked up)
chain: MATQADLMELDMAMEPDRKAAVSHWQQQSYLDSGIHSGATTTAPSLSGKGNPEEEDVDTSQVLYEWEQGFSQSFTQEQVADIDGQYAMTRAQRVRAAMFPETLDEGMQIPSTQFDAAHPTNVQRLAEPSQMLKHAVVNLINYQDDAELATRAIPELTKLLNDEDQVVVNKAAVMVHQLSKKEASRHAIMRSPQMVSAIVRTMQNTNDVETARCTAGTLHNLSHHREGLLAIFKSGGIPALVKMLGSPVDSVLFYAITTLHNLLLHQEGAKMAVRLAGGLQKMVALLNKTNVKFLAITTDCLQILAYGNQESKLIILASGGPQALVNIMRTYTYEKLLWTTSRVLKVLSVCSSNKPAIVEAGGMQALGLHLTDPSQRLVQNCLWTLRNLSDAATKQEGMEGLLGTLVQLLGSDDINVVTCAAGILSNLTCNNYKNKMMVCQVGGIEALVRTVLRAGDREDITEPAICALRHLTSRHQEAEMAQNAVRLHYGLPVVVKLLHPPSHWPLIKATVGLIRNLALCPANHAPLREQGAIPRLVQLLVRAHQDTQRRTSMGGTQQQFVEGVRMEEIVEGCTGALHILARDVHNRIVIRGLNTIPLFVQLLYSPIENIQRVAAGVLCELAQDKEAAEAIEAEGATAPLTELLHSRNEGVATYAAAVLFRMSEDKPQDYKKRLSVELTSSLFRTEPMAWNETADLGLDIGAQGEALGYRQDDPSYRSFHSGGYGQDALGMDPMMEHEMGGHHPGADYPVDGLPDLGHAQDLMDGLPPGDSNQLAWFDTDL
notes: β-catenin, mouse, endogenous; Endogenous protein, precipitated with mouse anti-β-catenin (BD Biosciences); With HGF a part of it is phosphorylated at Y142; source: endogenous, lysate of crude synaptosomes from P14 mouse neocortex; endogenous, primary mouse neocortical neurons (14 DIV)
B2: synapsin 1 (natural protein)
chain: not shown
notes: synapsin 1, mouse, endogenous; also called Syn 1; source: endogenous, lysate of crude synaptosomes from P14 mouse neocortex; endogenous, primary mouse neocortical neurons (14 DIV)
B3: N-cadherin (natural protein, UniProt P15116 160-906, looked up)
chain: DWVIPPINLPENSRGPFPQELVRIRSDRDKNLSLRYSVTGPGADQPPTGIFIINPISGQLSVTKPLDRELIARFHLRAHAVDINGNQVENPIDIVINVIDMNDNRPEFLHQVWNGSVPEGSKPGTYVMTVTAIDADDPNALNGMLRYRILSQAPSTPSPNMFTINNETGDIITVAAGLDREKVQQYTLIIQATDMEGNPTYGLSNTATAVITVTDVNDNPPEFTAMTFYGEVPENRVDVIVANLTVTDKDQPHTPAWNAAYRISGGDPTGRFAILTDPNSNDGLVTVVKPIDFETNRMFVLTVAAENQVPLAKGIQHPPQSTATVSVTVIDVNENPYFAPNPKIIRQEEGLHAGTMLTTLTAQDPDRYMQQNIRYTKLSDPANWLKIDPVNGQITTIAVLDRESPNVKNNIYNATFLASDNGIPPMSGTGTLQIYLLDINDNAPQVLPQEAETCETPEPNSINITALDYDIDPNAGPFAFDLPLSPVTIKRNWTINRLNGDFAQLNLKIKFLEAGIYEVPIIITDSGNPPKSNISILRVKVCQCDSNGDCTDVDRIVGAGLGTGAIIAILLCIIILLILVLMFVVWMKRRDKERQAKQLLIDPEDDVRDNILKYDEEGGGEEDQDYDLSQLQQPDTVEPDAIKPVGIRRLDERPIHAEPQYPVRSAAPHPGDIGDFINEGLKAADNDPTAPPYDSLLVFDYEGSGSTAGSLSSLNSSSSGGDQDYDYLNDWGPRFKKLADMYGGGDD
notes: N-cadherin (cadherin-2), mouse, endogenous; Endogenous protein, precipitated with rabbit anti-N-cadherin (Santa Cruz Biotechnology); source: endogenous, lysate of crude synaptosomes from P14 mouse neocortex
B4: MET receptor tyrosine kinase (receptor, UniProt P16056 25-1379, looked up)
chain: ECKEALVKSEMNVNMKYQLPNFTAETPIQNVVLHGHHIYLGATNYIYVLNDKDLQKVSEFKTGPVLEHPDCLPCRDCSSKANSSGGVWKDNINMALLVDTYYDDQLISCGSVNRGTCQRHVLPPDNSADIQSEVHCMFSPEEESGQCPDCVVSALGAKVLLSEKDRFINFFVGNTINSSYPPGYSLHSISVRRLKETQDGFKFLTDQSYIDVLPEFLDSYPIKYIHAFESNHFIYFLTVQKETLDAQTFHTRIIRFCSVDSGLHSYMEMPLECILTEKRRKRSTREEVFNILQAAYVSKPGANLAKQIGASPSDDILFGVFAQSKPDSAEPVNRSAVCAFPIKYVNDFFNKIVNKNNVRCLQHFYGPNHEHCFNRTLLRNSSGCEARSDEYRTEFTTALQRVDLFMGRLNQVLLTSISTFIKGDLTIANLGTSEGRFMQVVLSRTAHLTPHVNFLLDSHPVSPEVIVEHPSNQNGYTLVVTGKKITKIPLNGLGCGHFQSCSQCLSAPYFIQCGWCHNQCVRFDECPSGTWTQEICLPAVYKVFPTSAPLEGGTVLTICGWDFGFRKNNKFDLRKTKVLLGNESCTLTLSESTTNTLKCTVGPAMSEHFNVSVIISNSRETTQYSAFSYVDPVITSISPRYGPQAGGTLLTLTGKYLNSGNSRHISIGGKTCTLKSVSDSILECYTPAQTTSDEFPVKLKIDLANRETSSFSYREDPVVYEIHPTKSFISGGSTITGIGKTLNSVSLPKLVIDVHEVGVNYTVACQHRSNSEIICCTTPSLKQLGLQLPLKTKAFFLLDGILSKHFDLTYVHNPVFEPFEKPVMISMGNENVVEIKGNNIDPEAVKGEVLKVGNQSCESLHWHSGAVLCTVPSDLLKLNSELNIEWKQAVSSTVLGKVIVQPDQNFAGLIIGAVSISVVVLLLSGLFLWMRKRKHKDLGSELVRYDARVHTPHLDRLVSARSVSPTTEMVSNESVDYRATFPEDQFPNSSQNGACRQVQYPLTDLSPILTSGDSDISSPLLQNTVHIDLSALNPELVQAVQHVVIGPSSLIVHFNEVIGRGHFGCVYHGTLLDNDGKKIHCAVKSLNRITDIEEVSQFLTEGIIMKDFSHPNVLSLLGICLRSEGSPLVVLPYMKHGDLRNFIRNETHNPTVKDLIGFGLQVAKGMKYLASKKFVHRDLAARNCMLDEKFTVKVADFGLARDMYDKEYYSVHNKTGAKLPVKWMALESLQTQKFTTKSDVWSFGVLLWELMTRGAPPYPDVNTFDITIYLLQGRRLLQPEYCPDALYEVMLKCWHPKAEMRPSFSELVSRISSIFSTFIGEHYVHVNATYVNVKCVAPYPSLLPSQDNIDGEGNT
notes: MET receptor tyrosine kinase (hepatocyte growth factor receptor), mouse, endogenous; Endogenous protein, precipitated with goat anti-MET (R&D Systems); With HGF the receptor is phosphorylated (pMET blot); source: endogenous, lysate of crude synaptosomes from P14 mouse neocortex; endogenous, primary mouse neocortical neurons (14 DIV)

How the values were obtained:
Conditions in all cases: partners not purified
[1] = target: B4; assay: co-IP; crude synaptosomes from P14 mouse neocortex, PBS or 25 ng/ml HGF for 5 min at 37 °C, lysed in HEPES pH 7.4 buffer with 1% Triton X-100; IP with goat anti-MET, mouse anti-β-catenin or rabbit anti-N-cadherin (control IgG in parallel), protein G plus agarose, washes in lysis buffer plus 150 mM NaCl; Western blot; band ratios as fold change HGF/PBS, 3 experiments
N-cadherin = target: B3; assay: as above
[2] = target: B4; assay: proximity ligation; Duolink in situ PLA on fixed primary mouse neocortical neurons at 14 DIV, endogenous proteins, two antibodies (signal means 40 nm or less); PBS or 25 ng/ml HGF for 5, 10 or 30 min; PLA clusters per area of dendrite
β-catenin = target: B1; assay: co-IP; crude synaptosomes from P14 mouse neocortex, PBS or 25 ng/ml HGF for 5 min at 37 °C, lysed in HEPES pH 7.4 buffer with 1% Triton X-100; IP with goat anti-MET, mouse anti-β-catenin or rabbit anti-N-cadherin (control IgG in parallel), protein G plus agarose, washes in lysis buffer plus 150 mM NaCl; Western blot; band ratios as fold change HGF/PBS, 3 experiments

Row | mean fold change (HGF/PBS) of co-immunoprecipitated protein [1] | mean fold change (HGF/PBS) of co-immunoprecipitated protein (N-cadherin) | fold increase in density of PLA signal (HGF against PBS) [2] | mean fold change (HGF/PBS) of co-immunoprecipitated protein (β-catenin) | Binder
1 | 0.399 fold | 1.39 fold | – | – | B1
2 | 1.8 fold | – | ~1.5 fold | – | B2
3 | – | – | – | 1.31 fold | B3
4 | – | – | – | 0.376 fold | B4
